In patent US20250042956A1 (University of California, published 2025):
Each block holds one binder with its values, some of them ahead of it.

How the values were obtained:
AT2G17540.2 TRBIP2 [1] = target: T1, AT2G17540.2 TRBIP2 (Arabidopsis thaliana); experiment: IP-MS rep 2
T1 construct: Endogenous protein found by mass spectrometry
T1 chain: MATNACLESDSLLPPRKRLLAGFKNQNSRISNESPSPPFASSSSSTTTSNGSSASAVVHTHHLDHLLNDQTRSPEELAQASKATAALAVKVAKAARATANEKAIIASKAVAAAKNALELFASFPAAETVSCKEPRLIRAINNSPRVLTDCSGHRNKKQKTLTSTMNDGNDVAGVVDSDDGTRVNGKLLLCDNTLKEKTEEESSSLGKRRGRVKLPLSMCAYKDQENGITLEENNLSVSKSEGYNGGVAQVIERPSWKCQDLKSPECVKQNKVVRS
Protocol: (§1) The method of IP-MS used in this Example has been described in a recent paper (see e.g., Xue, Nat. Comm., 2021). Ten grams of unopened floral buds from Col-0 wild type and FLAG-tag transgenic plants, including PHD1, MOM1, AIPP3, MOM2, MORC6, PIAL2, TRB1, TRB2, TRB3, JMJ14, HD2A, HD2B, and ELF7 were collected and ground into fine powder with liquid nitrogen. These samples were resuspended with 25 mL IP buffer and homogenized until lump-free by dounce homogenizer. The lysate was filtered through Miracloth and incubated with 250 μL anti-FLAG M2 magnetic beads (Sigma) at 4° C. for 2 hours. The magnetic beads were washed with IP buffer and eluted with TBS containing 250 μg/mL 3×FLAG peptides. The eluted proteins were precipitated with trichloroacetic acid (Sigma) and subject to MS analyses as described previously (see e.g., Xue, Nat. Comm., 2021).

AT4G35510.1 TRBIP1 [2] = target: T2, AT4G35510.1 TRBIP1 (Arabidopsis thaliana); experiment: IP-MS rep 2
T2 construct: Endogenous protein found by mass spectrometry
T2 chain: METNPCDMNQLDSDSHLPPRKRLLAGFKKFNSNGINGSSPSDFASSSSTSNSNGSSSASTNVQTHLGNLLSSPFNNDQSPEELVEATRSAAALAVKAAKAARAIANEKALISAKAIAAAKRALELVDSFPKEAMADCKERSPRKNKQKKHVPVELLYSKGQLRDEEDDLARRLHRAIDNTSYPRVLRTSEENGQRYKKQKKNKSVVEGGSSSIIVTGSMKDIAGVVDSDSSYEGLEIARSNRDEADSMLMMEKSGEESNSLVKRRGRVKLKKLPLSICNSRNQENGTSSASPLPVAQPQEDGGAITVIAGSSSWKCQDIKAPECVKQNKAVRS
Protocol: as §1

AT4G20400.1 JMJ14 [3] = target: T3, AT4G20400.1 JMJ14 (Arabidopsis thaliana, UniProt Q8GUI6 1-954); experiment: IP-MS rep 2
T3 construct: Endogenous protein found by mass spectrometry; also called JUMONJI 14
Protocol: as §1

AT2G17540.2 TRBIP2 [4] = target: T1, AT2G17540.2 TRBIP2; experiment: X-link IP-MS
AT4G35510.1 TRBIP1 [5] = target: T2, AT4G35510.1 TRBIP1; experiment: X-link IP-MS
AT4G20400.1 JMJ14 [6] = target: T3, AT4G20400.1 JMJ14; experiment: X-link IP-MS
AT2G17540.2 TRBIP2 [7] = target: T1, AT2G17540.2 TRBIP2; experiment: IP-MS rep 1
Protocol: as §1

AT4G35510.1 TRBIP1 [8] = target: T2, AT4G35510.1 TRBIP1; experiment: IP-MS rep 1
Protocol: as §1

AT4G20400.1 JMJ14 [9] = target: T3, AT4G20400.1 JMJ14; experiment: IP-MS rep 1
Protocol: as §1

AT2G23380.1 CLF [10] = target: T4, AT2G23380.1 CLF (Arabidopsis thaliana, UniProt P93831 1-902); experiment: IP-MS rep 2
T4 construct: Endogenous protein found by mass spectrometry; also called CURLY LEAF
T4 sequence (looked up): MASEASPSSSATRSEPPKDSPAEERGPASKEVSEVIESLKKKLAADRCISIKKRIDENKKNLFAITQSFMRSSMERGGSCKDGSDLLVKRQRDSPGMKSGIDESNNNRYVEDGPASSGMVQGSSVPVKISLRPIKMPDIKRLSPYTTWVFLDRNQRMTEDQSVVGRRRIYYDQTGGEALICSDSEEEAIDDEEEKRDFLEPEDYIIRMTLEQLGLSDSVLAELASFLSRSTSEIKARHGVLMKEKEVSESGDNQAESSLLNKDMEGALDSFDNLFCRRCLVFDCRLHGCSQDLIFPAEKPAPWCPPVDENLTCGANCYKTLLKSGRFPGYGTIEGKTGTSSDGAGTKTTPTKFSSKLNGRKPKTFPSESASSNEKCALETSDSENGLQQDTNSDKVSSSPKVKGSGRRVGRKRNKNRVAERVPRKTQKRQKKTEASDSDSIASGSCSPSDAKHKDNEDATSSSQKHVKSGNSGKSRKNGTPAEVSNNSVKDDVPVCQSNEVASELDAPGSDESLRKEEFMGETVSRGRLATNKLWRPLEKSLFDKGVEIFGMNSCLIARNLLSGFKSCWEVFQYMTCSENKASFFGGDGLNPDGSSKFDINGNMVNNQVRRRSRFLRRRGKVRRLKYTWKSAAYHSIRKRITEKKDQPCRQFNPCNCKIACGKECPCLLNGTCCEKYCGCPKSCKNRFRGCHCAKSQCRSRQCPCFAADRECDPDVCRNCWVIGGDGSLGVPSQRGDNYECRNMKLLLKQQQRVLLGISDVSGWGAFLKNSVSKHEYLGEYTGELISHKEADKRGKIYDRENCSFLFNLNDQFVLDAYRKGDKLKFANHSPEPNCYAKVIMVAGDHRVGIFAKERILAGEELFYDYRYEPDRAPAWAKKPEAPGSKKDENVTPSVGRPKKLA
Protocol: as §1

AT3G49850.1 TRB3 [11] = target: T5, AT3G49850.1 TRB3 (Arabidopsis thaliana, UniProt Q9M2X3 1-295); experiment: IP-MS rep 2
T5 construct: Endogenous protein found by mass spectrometry
T5 sequence: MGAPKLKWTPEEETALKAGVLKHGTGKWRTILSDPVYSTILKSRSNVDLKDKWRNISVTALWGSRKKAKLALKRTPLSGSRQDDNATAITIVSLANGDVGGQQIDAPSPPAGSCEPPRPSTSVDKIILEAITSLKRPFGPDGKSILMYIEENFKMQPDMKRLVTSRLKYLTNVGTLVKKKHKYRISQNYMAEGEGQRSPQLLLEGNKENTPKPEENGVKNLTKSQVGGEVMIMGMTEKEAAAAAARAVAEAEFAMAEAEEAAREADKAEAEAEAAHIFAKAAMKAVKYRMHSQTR
Protocol: as §1

AT5G51230.1 EMF2 [12] = target: T6, AT5G51230.1 EMF2 (Arabidopsis thaliana, UniProt Q8L6Y4 1-631); experiment: IP-MS rep 2
T6 construct: Endogenous protein found by mass spectrometry; also called EMBRYONIC FLOWER 2
T6 sequence (looked up): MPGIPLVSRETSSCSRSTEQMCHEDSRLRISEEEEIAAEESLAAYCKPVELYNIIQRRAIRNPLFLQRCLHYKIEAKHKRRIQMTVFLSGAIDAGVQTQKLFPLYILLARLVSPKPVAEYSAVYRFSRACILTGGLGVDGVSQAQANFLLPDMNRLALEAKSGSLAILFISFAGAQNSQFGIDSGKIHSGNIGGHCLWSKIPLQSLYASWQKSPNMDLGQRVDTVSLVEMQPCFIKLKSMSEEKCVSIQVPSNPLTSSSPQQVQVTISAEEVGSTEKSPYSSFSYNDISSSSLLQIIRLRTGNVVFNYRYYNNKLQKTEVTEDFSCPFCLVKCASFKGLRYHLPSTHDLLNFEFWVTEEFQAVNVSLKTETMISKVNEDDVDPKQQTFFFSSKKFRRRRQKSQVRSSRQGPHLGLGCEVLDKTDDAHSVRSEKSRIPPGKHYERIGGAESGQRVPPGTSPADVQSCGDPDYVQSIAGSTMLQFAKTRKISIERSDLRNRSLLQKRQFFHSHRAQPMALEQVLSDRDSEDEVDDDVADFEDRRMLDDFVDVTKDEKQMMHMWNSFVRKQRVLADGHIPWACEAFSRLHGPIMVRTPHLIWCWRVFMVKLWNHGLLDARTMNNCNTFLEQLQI
Protocol: as §1

AT2G23380.1 CLF [13] = target: T4, AT2G23380.1 CLF; experiment: X-link IP-MS
AT3G49850.1 TRB3 [14] = target: T5, AT3G49850.1 TRB3; experiment: X-link IP-MS
AT5G51230.1 EMF2 [15] = target: T6, AT5G51230.1 EMF2; experiment: X-link IP-MS
AT2G23380.1 CLF [16] = target: T4, AT2G23380.1 CLF; experiment: IP-MS rep 1
Protocol: as §1

AT3G49850.1 TRB3 [17] = target: T5, AT3G49850.1 TRB3; experiment: IP-MS rep 1
Protocol: as §1

AT5G51230.1 EMF2 [18] = target: T6, AT5G51230.1 EMF2; experiment: IP-MS rep 1
Protocol: as §1

T3 sequence (Q8GUI6 whole entry): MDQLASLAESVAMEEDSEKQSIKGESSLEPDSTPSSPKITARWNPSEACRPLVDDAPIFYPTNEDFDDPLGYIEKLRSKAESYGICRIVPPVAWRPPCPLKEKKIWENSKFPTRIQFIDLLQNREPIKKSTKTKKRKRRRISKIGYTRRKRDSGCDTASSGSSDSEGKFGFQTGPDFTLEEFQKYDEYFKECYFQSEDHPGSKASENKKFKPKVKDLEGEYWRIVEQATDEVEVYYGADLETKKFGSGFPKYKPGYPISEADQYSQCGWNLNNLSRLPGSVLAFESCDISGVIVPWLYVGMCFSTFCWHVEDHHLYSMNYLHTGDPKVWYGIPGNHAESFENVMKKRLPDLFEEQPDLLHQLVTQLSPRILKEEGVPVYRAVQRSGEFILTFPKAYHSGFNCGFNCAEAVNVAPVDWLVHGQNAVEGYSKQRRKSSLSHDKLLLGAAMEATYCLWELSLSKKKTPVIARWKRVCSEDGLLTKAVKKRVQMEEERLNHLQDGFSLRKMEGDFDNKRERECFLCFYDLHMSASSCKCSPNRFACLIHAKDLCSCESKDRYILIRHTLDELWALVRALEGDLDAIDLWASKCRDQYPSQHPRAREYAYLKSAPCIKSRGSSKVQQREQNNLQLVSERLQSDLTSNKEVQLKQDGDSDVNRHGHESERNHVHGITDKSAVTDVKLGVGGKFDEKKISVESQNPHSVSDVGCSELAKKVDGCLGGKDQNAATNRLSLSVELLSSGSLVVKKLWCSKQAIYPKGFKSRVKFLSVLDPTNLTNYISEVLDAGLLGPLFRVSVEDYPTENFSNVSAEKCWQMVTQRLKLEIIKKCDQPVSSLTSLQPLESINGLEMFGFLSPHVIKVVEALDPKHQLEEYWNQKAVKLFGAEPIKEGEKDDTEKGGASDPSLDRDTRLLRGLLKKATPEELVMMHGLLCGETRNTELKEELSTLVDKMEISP

IP-MS count (AT2G17540.2 TRBIP2 [1]): 10
IP-MS count (AT4G35510.1 TRBIP1 [2]): 22
IP-MS count (AT4G20400.1 JMJ14 [3]): 4
IP-MS count (AT2G17540.2 TRBIP2 [4]): 7
IP-MS count (AT4G35510.1 TRBIP1 [5]): 16
IP-MS count (AT4G20400.1 JMJ14 [6]): 78
IP-MS count (AT2G17540.2 TRBIP2 [7]): 10
IP-MS count (AT4G35510.1 TRBIP1 [8]): 22
IP-MS count (AT4G20400.1 JMJ14 [9]): 3
B1: FLAG-TRB2 (other, not shown: small tags and cut ends)
chain: MGAPKQKWTPEEEAALKAGVLKHGTGKWRTILSDSEFSLILKSRSNVDLKDKWRNISVTALWGSRKKAKLALKRTPPGTKQDDNNTALTIVALTNDDERAKPTSPGGSGGGSPRTCASKRSITSLDKIIFEAITNLRELRGSDRTSIFLYIEENFKTPPNMKRHVAVRLKHLSSNGTLVKIKHKYRFSSNFIPAGARQKAPQLFLEGNNKKDPTKPEENGANSLTKFRVDGELYMIKGMTAQEAAEAAARAVAEAEFAITEAEQAAKEAERAEAEAEAAQIFAKAAMKALKFRIRNHPW
notes: FLAG-tagged TRB2 from its native promoter; tag position under the label FLAG-TRB2 not certain; also called TRB2-FLAG; TRB-FLAG

IP-MS count (AT2G23380.1 CLF [10]): 0
IP-MS count (AT2G17540.2 TRBIP2 [1]): 22
IP-MS count (AT4G35510.1 TRBIP1 [2]): 11
IP-MS count (AT3G49850.1 TRB3 [11]): 0
IP-MS count (AT5G51230.1 EMF2 [12]): 0
IP-MS count (AT2G23380.1 CLF [13]): 0
IP-MS count (AT2G17540.2 TRBIP2 [4]): 0
IP-MS count (AT4G35510.1 TRBIP1 [5]): 0
IP-MS count (AT3G49850.1 TRB3 [14]): 0
IP-MS count (AT5G51230.1 EMF2 [15]): 0
IP-MS count (AT2G23380.1 CLF [16]): 0
IP-MS count (AT2G17540.2 TRBIP2 [7]): 18
IP-MS count (AT4G35510.1 TRBIP1 [8]): 5
IP-MS count (AT3G49850.1 TRB3 [17]): 0
IP-MS count (AT5G51230.1 EMF2 [18]): 0
B2: FLAG-TRB1 (other, not shown: small tags and cut ends)
chain: MGAPKQKWTQEEESALKSGVIKHGPGKWRTILKDPEFSGVLYLRSNVDLKDKWRNMSVMANGWGSREKSRLAVKRTFSLPKQEENSLALTNSLQSDEENVDATSGLQVSSNPPPRRPNVRLDSLIMEAIATLKEPGGCNKTTIGAYIEDQYHAPPDFKRLLSTKLKYLTSCGKLVKVKRKYRIPNSTPLSSHRRKGLGVFGGKQRTSSLPSPKTDIDEVNFQTRSQIDTEIARMKSMNVHEAAAVAAQAVAEAEAAMAEAEEAAKEAEAAEAEAEAAQAFAEEASKTLKGRNICKMMIRA
notes: FLAG-tagged TRB1 from its native promoter in the trb1 mutant background; Printed both as TRB-FLAG and FLAG-TRB1; the vector description gives a C-terminal 3xFLAG-BLRP, so the tag position under the label FLAG-TRB1 is not certain; also called TRB1-FLAG; TRB-FLAG
